Values of other authors, collected in article PMC4264850.

Biological target: EGFR (Homo sapiens) (UniProt P00533)

matuzumab
Kd: 0.34 nM
